Measurements taken from patent US20230002481A1 (Chugai, published 2023).

T1: recombinant cyno C1r2s2 His/Flag tetramer (cynomolgus monkey, limits assumed)
T1 construct: Heterotetramer of two C1r-His and two C1s-Flag chains, co-expressed in FreeStyle293-F cells; also called cyno C1r2s2s
T1 chain 1: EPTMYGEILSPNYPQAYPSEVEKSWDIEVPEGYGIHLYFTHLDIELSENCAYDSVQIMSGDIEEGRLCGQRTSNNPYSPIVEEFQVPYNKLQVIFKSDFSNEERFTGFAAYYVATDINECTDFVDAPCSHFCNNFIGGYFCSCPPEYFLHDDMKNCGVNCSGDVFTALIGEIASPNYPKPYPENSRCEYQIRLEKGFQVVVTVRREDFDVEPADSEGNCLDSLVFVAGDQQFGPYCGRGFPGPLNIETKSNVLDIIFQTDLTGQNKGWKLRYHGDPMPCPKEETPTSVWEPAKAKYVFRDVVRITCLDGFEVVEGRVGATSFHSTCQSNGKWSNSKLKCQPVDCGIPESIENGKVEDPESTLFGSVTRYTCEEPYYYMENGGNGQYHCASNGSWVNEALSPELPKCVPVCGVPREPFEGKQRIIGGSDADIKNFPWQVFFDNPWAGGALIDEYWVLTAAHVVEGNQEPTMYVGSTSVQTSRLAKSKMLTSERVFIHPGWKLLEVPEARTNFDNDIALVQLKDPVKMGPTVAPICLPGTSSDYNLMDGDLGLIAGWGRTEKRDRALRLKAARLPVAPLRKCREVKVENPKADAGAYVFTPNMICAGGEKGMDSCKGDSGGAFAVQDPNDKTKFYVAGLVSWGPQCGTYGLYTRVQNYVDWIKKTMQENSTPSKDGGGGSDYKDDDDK
T1 chain 2: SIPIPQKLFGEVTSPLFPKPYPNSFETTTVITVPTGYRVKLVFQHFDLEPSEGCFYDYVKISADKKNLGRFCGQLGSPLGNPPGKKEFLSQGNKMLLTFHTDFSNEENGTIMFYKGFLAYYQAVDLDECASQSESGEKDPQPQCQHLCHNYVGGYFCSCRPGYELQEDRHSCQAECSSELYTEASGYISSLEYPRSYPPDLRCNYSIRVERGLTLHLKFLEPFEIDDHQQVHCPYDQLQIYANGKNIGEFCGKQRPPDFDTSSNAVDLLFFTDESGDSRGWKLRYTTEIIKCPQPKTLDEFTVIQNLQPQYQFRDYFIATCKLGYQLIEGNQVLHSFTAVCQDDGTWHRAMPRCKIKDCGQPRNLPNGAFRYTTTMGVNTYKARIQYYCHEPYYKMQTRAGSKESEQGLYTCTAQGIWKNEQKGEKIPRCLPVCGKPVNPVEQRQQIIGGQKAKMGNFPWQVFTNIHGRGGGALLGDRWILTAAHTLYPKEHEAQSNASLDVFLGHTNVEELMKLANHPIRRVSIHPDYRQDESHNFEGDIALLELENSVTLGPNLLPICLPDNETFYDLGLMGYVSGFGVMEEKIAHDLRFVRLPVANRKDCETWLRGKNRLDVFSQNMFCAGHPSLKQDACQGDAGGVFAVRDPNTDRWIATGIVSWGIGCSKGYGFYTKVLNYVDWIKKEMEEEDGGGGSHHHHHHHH


Biological target: T1, recombinant cyno C1r2s2 His/Flag …
Test: SPR (Biacore), pH5.8*: dissociation at pH5.8 after association and dissociation at pH7.4, 37 C, Scrubber fit
Experimental: The kinetic parameters of anti-C1s antibodies against recombinant human C1s (as described in PCT/JP2018/042054), human C1r2s2, and cyno C1r2s2 His/Flag (also referred as cyno C1r2s2 in the Table and Figures) were assessed at pH7.4 and pH5.8, at 37 degrees C. using BIACORE (registered trademark) T200 instrument (GE Healthcare) or BIACORE 4000 (GE Healthcare). ProAG (Pierce) was immobilized onto a CM4 sensorchip using amine coupling kit (GE Healthcare) according to the recommended settings by GE Healthcare. Antibodies and analytes were diluted into the respective running buffers, ACES pH7.4 and pH5.8 (20 mM ACES, 150 mM NaCl, 1.2 mM CaCl₂, 1 mg/ml BSA, 1 mg/ml CMD, 0.05% Tween 20, 0.005 w/v % NaN₃). Each antibody was captured onto the sensor surface by ProA/G. Antibody capture levels were typically 100-200 resonance units (RU). Then, recombinant C1s was injected at concentrations of 25 and 50 nM followed by dissociation at pH7.4 and pH5.8. The surface was regenerated using 10 mM Glycine-HCl, pH1.5. Kinetic parameters at neutral pH conditions and acidic conditions were determined by fitting the sensorgrams with 1:1 binding model using BIACORE (registered trademark) T200 Evaluation software, version 2.0 (GE Healthcare) or BIACORE 4000 Evaluation software. The dissociation rate at pH5.8 (after dissociation at pH7.4, indicated as pH5.8* in TABLE 2) was determined by processing and fitting data using Scrubber 2.0 (BioLogic Software) curve fitting software. The association rate (ka), dissociation rate (kd), binding affinity (KD) at pH7.4 and pH5.8 condition, and dissociation rate (kd) at pH5.8* condition of the antibodies are listed in TABLE 2. Some kinetic parameters of COS0098pHv1 in acidic condition were not correctly calculated because of its weak binding response.
Also, to observe the cross-reactivity of anti-C1s antibodies against human C1r2s2 and cyno C1r2s2 (cyno C1r2s2 His/Flag), BIACORE (registered trademark) kinetics analysis was performed.

| Binder | koff [s⁻¹] |
| --- | --- |
| COS0098bb (antibody, V domains shown, Anti-C1s rabbit antibody, parent of COS0098pHv1; the antibody was captured by ProA/G; also called anti-C1s antibody COS0098bb) VH: QSVEESGGRLVTPGTPLTLTCTVSGFSLTKYTVSWVRQAPGKGLEWIGIINTGGSAYYATWAKGRFTFSKTSTTVDLQITSPTTEDTATYFCARGNGDTDYTNLWGPGTLVTVSS VL: QVLTQTPSSVSEPVGGTVTINCQASENIYSALAWYQQKPGQPPKLLIYGASNLESGVPSRFKGSGSGTQFTLTISDLECADAATYYCQQYYFTSSTFGGGTKVEIK | 0.000926 |
| COS0098pHv1 (antibody, V domains shown, Humanized, optimized pH-dependent variant of COS0098bb) VH: QVQLVQSGAEVKKPGSSVKVSCKASGHTFSKYTVSWIRQPPGKGLEWIGIINTGGSAYPATWAKGRVTITADESTSTAYMELSSLRSEDTAVYYCARGAGDTDYTNLWGQGTLVTVSS VL: DIQMTQSPSSLSASVGDRVTITCQASENIYSALAWYQQKPGQPPKLLIYGASQLESGVPSRFSGSGSGTDFTLTISSLQPEDFATYYCQQYYFTSHTFGQGTKVEIK | 0.0618 |
